# Reference: article PMC4587339 (Journal of molecular biology, 2015)
# “And” between values parts separate entries of the source, which are not always exact repeats. Equal entries are not always repeated.
# T1: L-terminase ATPase domain of bacteriophage P22 (residues 1-287) (bacteriophage P22, UniProt P26745 1-287)
# T1 sequence (looked up): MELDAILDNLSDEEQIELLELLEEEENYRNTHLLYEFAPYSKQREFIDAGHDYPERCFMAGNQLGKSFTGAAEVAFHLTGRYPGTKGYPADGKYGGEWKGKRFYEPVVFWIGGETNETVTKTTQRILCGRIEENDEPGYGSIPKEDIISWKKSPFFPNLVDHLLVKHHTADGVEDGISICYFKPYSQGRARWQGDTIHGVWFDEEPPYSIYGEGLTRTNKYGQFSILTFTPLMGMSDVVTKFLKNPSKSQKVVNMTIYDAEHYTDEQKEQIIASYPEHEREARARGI
# T2: full length L-terminase of bacteriophage P22, purified alone for the pull-down (bacteriophage P22, UniProt P26745 1-499)
# T2 sequence (looked up): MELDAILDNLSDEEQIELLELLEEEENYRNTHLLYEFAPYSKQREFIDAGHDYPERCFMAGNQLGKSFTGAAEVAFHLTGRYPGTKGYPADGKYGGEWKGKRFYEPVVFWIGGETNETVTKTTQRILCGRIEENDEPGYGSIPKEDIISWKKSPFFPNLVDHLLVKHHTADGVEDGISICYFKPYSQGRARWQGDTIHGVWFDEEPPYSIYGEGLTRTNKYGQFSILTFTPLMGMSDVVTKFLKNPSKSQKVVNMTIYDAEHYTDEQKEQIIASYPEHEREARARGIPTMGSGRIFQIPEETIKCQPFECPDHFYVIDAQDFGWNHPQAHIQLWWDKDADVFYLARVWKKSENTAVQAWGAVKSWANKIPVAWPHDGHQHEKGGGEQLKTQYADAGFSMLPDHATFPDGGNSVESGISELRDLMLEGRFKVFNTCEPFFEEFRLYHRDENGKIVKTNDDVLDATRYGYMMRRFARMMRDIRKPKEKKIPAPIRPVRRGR
# T3: S-terminase (small terminase subunit) of bacteriophage P22, full length, MBP cleaved off (bacteriophage P22, UniProt P04893 1-162)
# T3 sequence (looked up): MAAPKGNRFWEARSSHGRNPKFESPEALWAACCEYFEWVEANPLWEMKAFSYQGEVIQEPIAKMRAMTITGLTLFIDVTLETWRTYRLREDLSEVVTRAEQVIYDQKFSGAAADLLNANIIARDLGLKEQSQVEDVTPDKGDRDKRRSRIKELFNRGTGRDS
# T4: MBP-tagged L-terminase Binding Domain of P22 S-terminase (residues 140-162) (bacteriophage P22, UniProt P04893 140-162)
# T4 chain (looked up): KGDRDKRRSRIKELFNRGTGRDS
# B1: L-terminase (large terminase subunit) of bacteriophage P22, full length, co-expressed (enzyme, UniProt P26745 1-499, looked up)
# chain: T2 sequence (looked up)
# What was measured:
# [1] = target: T1, L-terminase ATPase domain of …; experiment: pull-down
# [2] = target: T2, full length L-terminase of …; experiment: pull-down
# [3] = target: T3, S-terminase (small terminase subunit) …; experiment: native MS
# [4] = target: T4, MBP-tagged L-terminase Binding Domain …; experiment: AUC
Binder,binding result [1],binding result [2],stoichiometry N [3],stoichiometry N [4] [L-terminase per MBP-LBD]
"KGDRDKRRSRIKELFNRGTGRDS (domain or fragment, bacteriophage P22, UniProt P04893 140-162, looked up) [GST-tagged L-terminase Binding Domain of P22 S-terminase (residues 140-162)]",binds,binds,–,–
B1,–,–,1 L-terminase per S-terminase nonamer and 2 L-terminase per S-terminase nonamer and 3 L-terminase per S-terminase nonamer,1
